Data: patent US20100260668A1 (published 2010)
Values joined by “and” are separate entries in the source; they are usually repeats but may differ in a detail not shown here. Identical values can stand only once. Blank lines part the entries; values can stand above or below the binder they belong to.

What was measured:
HGF = molecular target: T1, HGF (UniProt P14210 32-728); assay: Biacore SPR
T1 construct: Bought reagent
Description: (§1) The BIACORE assay (Biacore, Inc, Piscataway, N.J.) determines the affinity of antibodies or DVD-Ig with kinetic measurements of on-rate and off-rate constants. Binding of antibodies or DVD-Ig to a target antigen (for example, a purified recombinant target antigen) is determined by surface plasmon resonance-based measurements with a Biacore® 1000 or 3000 instrument (Biacore® AB, Uppsala, Sweden) using running HBS-EP (10 mM HEPES [pH 7.4], 150 mM NaCl, 3 mM EDTA, and 0.005% surfactant P20) at 25° C. […] For example, approximately 5000 RU of goat anti-mouse IgG, (Fcγ), fragment specific polyclonal antibody (Pierce Biotechnology Inc, Rockford, Ill.) diluted in 10 mM sodium acetate (pH 4.5) is directly immobilized across a CM5 research grade biosensor chip using a standard amine coupling kit according to manufacturer's instructions and procedures at 25 μg/ml. Unreacted moieties on the biosensor surface are blocked with ethanolamine. Modified carboxymethyl dextran surface in flowcell 2 and 4 is used as a reaction surface. Unmodified carboxymethyl dextran without goat anti-mouse IgG in flow cell 1 and 3 is used as the reference surface. For kinetic analysis, rate equations derived from the 1:1 Langmuir binding model are fitted simultaneously to association and dissociation phases of all eight injections (using global fit analysis) with the use of Biaevaluation 4.0.1 software. Purified antibodies or DVD-Ig are diluted in HEPES-buffered saline for capture across goat anti-mouse IgG specific reaction surfaces. Antibodies or DVD-Ig to be captured as a ligand (25 μg/ml) are injected over reaction matrices at a flow rate of 5 μl/min. The association and dissociation rate constants, kₒₙ (M⁻¹s⁻¹) and koff (s⁻¹) are determined under a continuous flow rate of 25 μl/min. Rate constants are derived by making kinetic binding measurements at different antigen concentrations ranging from 10-200 nM. The equilibrium dissociation constant (M) of the reaction between antibodies or DVD-Igs and the target antigen is then calculated from the kinetic rate constants by the following formula: KD=koff/kₒₙ. Binding is recorded as a function of time and kinetic rate constants are calculated.

MSP Receptor ECD-His tag = molecular target: T2, MSP Receptor ECD-His tag (UniProt Q04912 25-957, limits assumed); assay: Biacore SPR
T2 construct: extracellular domain; Bought reagent; also called RON; not shown: His tag

IGF-2 = molecular target: T3, IGF-2 (UniProt P01344 25-91); assay: Biacore SPR
T3 construct: Bought reagent
Description: as §1

[1] = molecular target: T4, ErbB3 (ErbB3/FC Chimera-His tag) (UniProt P21860 20-643, limits assumed); assay: SPR (Biacore); parent antibody
T4 construct: extracellular domain
Description: as §1

[2] = molecular target: human DLL4 extracellular domain (human, UniProt Q9NR61 27-529); assay: cell-based or functional assay
DLL ECD His tag = molecular target: T5, DLL ECD His tag (UniProt Q9NR61 27-529, limits assumed); assay: Biacore SPR
T5 construct: extracellular domain; Bought reagent; also called DLL4; DLL-4; not shown: His tag

Placental GF = molecular target: T6, Placental GF (UniProt P49763-2 21-149, limits assumed); assay: Biacore SPR
T6 construct: Bought reagent; also called PlGF; PLGF
T6 sequence (looked up): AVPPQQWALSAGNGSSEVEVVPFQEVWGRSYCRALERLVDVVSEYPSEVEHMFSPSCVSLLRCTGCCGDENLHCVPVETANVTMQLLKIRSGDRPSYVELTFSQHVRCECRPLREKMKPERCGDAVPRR
Description: as §1

[3] = molecular target: recombinant human VEGF165 (human, UniProt P15692-4 27-191); assay: cell-based or functional assay
recombinant human VEGF165, sequence (P15692 other isoform, or with tags, fused parts or gaps limits assumed): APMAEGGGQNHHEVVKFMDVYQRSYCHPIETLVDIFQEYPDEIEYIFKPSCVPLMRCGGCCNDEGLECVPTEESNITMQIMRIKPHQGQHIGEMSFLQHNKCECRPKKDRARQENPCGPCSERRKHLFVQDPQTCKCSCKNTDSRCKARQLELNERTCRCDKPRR

T1 sequence (P14210 32-728 limits assumed): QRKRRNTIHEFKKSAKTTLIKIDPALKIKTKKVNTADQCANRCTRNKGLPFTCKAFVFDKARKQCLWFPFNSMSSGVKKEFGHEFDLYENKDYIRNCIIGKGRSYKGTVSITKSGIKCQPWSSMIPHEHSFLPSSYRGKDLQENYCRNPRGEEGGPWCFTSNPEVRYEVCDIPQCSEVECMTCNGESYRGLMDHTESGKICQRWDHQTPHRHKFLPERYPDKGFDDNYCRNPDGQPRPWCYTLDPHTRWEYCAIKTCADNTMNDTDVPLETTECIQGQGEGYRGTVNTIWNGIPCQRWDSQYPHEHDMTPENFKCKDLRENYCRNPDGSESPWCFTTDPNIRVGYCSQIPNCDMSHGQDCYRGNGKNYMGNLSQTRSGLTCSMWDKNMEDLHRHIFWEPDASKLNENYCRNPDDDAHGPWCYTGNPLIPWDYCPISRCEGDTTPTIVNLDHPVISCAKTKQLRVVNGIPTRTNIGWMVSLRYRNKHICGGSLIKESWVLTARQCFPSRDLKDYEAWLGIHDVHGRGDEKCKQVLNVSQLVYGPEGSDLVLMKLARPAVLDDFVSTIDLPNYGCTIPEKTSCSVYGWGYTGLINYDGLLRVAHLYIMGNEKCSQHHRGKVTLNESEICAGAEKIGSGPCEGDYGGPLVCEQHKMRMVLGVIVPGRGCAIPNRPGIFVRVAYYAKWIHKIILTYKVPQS

B1: DVD033 (bispecific antibody, human IgG1, kappa)
heavy: not shown
light: DVVMTQSPLSLPVTPGEPASISCRSSQSLLHSNGFNYVDWYLQKPGQSPHLLIYFGSYRASGVPDRFSGSGSGTDFTLKISRVEAEDVGVYYCMQALQTPPWTFGQGTKVEIRRTVAAPDIQMTQSPSSVSASVGDRVTITCRASQGISSWLAWYQQKPGKAPNLLIYEASSLQSGVPSRFGGSGSGTDFTLTISSLQPEDFATYYCQQANGFPWTFGQGTKVEIKRTVAAPSVFIFPPSDEQLKSGTASVVCLLNNFYPREAKVQWKVDNALQSGNSQESVTEQDSKDSTYSLSSTLTLSKADYEKHKVYACEVTHQGLSSPVTKSFNRGEC
notes: N-terminal VD RON, C-terminal VD HGF; also called DVD033H; DVD033L
Kd (HGF): 310 pM
koff (HGF): 9.2e-05 s⁻¹
kon (HGF): 297000 M⁻¹ s⁻¹
Kd (MSP Receptor ECD-His tag): 7600 pM
koff (MSP Receptor ECD-His tag): 0.00118 s⁻¹
kon (MSP Receptor ECD-His tag): 156000 M⁻¹ s⁻¹

B2: DVD041 (bispecific antibody, human IgG1, lambda)
heavy: not shown
light: DIQMTQSPSSLSASVGDRVTITCSASQDISNYLNWYQQKPGKAPKVLIYFTSSLHSGVPSRFSGSGSGTDFTLTISSLQPEDFATYYCQQYSTVPWTFGQGTKVEIKRTVAAPQSVLTQPPSVSAAPGQKVTISCSGSSSNIENNHVSWYQQLPGTAPKLLIYDNNKRPSGIPDRFSGSKSGTSATLGITGLQTGDEADYYCETWDTSLSAGRVFGGGTKLTVLGQPKAAPSVTLFPPSSEELQANKATLVCLISDFYPGAVTVAWKADSSPVKAGVETTTPSKQSNNKYAASSYLSLTPEQWKSHRSYSCQVTHEGSTVEKTVAPTECS
notes: N-terminal VD VEGF, C-terminal VD IGF1,2; also called DVD041H; DVD041L
Kd (IGF-2): < 12.4 pM
koff (IGF-2): < 1e-06 s⁻¹
kon (IGF-2): 80900 M⁻¹ s⁻¹

B3: AB063 (antibody, human IgG1, kappa, V domains shown)
VH: EVQLVESGGGLVQPGGSLRLSCAASGFTFSIYSMNWVRQAPGKGLEWVSYISSSSSTIYYADSVKGRFTISRDNAKNSLYLQMNSLRDEDTAVYYCARDRGDFDAFDIWGQGTMVTVSS
VL: DIQMTQSPSSLSASVGDRVTITCQASQDITNYLNWYQQKPGKAPKLLIYDASNLETGVPSRFSGSGSGTDFTFTISSLQPEDIATYNCQQCENFPITFGQGTRLEIKR
notes: also called AB063VH; AB063VL
Kd [1]: 150 pM
koff [1]: 0.000175 s⁻¹
kon [1]: 1.17e+06 M⁻¹ s⁻¹

B4: AB015 (antibody, human IgG1, kappa)
heavy: not shown
light: DIQMTQSPSSLSASVGDRVTITCRASQDVSTAVAWYQQKPGKAPKLLIYSASFLYSGVPSRFSGSGSGTDFTLTISSLQPEDFATTYYCQQSYTGTVTFGQGTKVEIKRTVAAPSVFIFPPSDEQLKSGTASVVCLLNNFYPREAKVQWKVDNALQSGNSQESVTEQDSKDSTYSLSSTLTLSKADYEKHKVYACEVTHQGLSSPVTKSFNRGEC
Soluble Flt1 Assay, % of Neutralization @ 9.2 nM Ab [2]: 75.2%
Soluble Flt1 Assay, % of Neutralization @ 27.7 nM Ab [2]: 78.7%
Soluble Flt1 Assay, % of Neutralization @ 83.3 nM Ab [2]: 86.6%

B5: AB015 (antibody, human IgG1, kappa)
heavy: not shown
light: DIQMTQSPSSLSASVGDRVTITCRASQDVSTAVAWYQQKPGKAPKLLIYSASFLYSGVPSRFSGSGSGTDFTLTISSLQPEDFATTYYCQQSYTGTVTFGQGTKVEIKRTVAAPSVFIFPPSDEQLKSGTASVVCLLNNFYPREAKVQWKVDNALQSGNSQESVTEQDSKDSTYSLSSTLTLSKADYEKHKVYACEVTHQGLSSPVTKSFNRGEC
Kd (DLL ECD His tag): 414 pM
koff (DLL ECD His tag): 0.000166 s⁻¹
kon (DLL ECD His tag): 400000 M⁻¹ s⁻¹

B6: AB047 (antibody, human IgG1, kappa, V domains shown)
VH: QVQLQQSGAELVKPGASVKISCKASGYTFTDYYINWVKLAPGQGLEWIGWIYPGSGNTKYNEKFKGKATLTIDTSSSTAYMQLSSLTSEDTAVYFCVRDSPFFDYWGQGTLLTVSS
VL: DIVLTQSPDSLAVSLGERVTMNCKSSQSLLNSGMRKSFLAWYQQKPGQSPKLLIYWASTRESGVPDRFTGSGSGTDFTLTISSVQAEDVAVYYCKQSYHLFTFGSGTKLEIKR
Kd (Placental GF): 28.4 pM
koff (Placental GF): 0.000108 s⁻¹
kon (Placental GF): 3.8e+06 M⁻¹ s⁻¹

B8: AB005 (antibody, human IgG1, kappa, V domains shown)
VH: EVQLVQSGGGLVKPGGSLRLSCAASGFTFSSYAMHWVRQAPGKGLEWVAVISYDGSNKYYADSVKGRFTISRDNSKNTLYLQMNSLRAEDTAVYYCARFSGWPNNYYYYGMDVWGQGTTVTVSS
VL: DVVMTQSPLSLPVTPGEPASISCRSSQSLLHSNGFNYVDWYLQKPGQSPHLLIYFGSYRASGVPDRFSGSGSGTDFTLKISRVEAEDVGVYYCMQALQTPPWTFGQGTKVEIRR
Kd (MSP Receptor ECD-His tag): 20200 pM and 20100 pM
koff (MSP Receptor ECD-His tag): 0.000739 s⁻¹
kon (MSP Receptor ECD-His tag): 36600 M⁻¹ s⁻¹

B10: AB062 (antibody, human IgG1, kappa, V domains shown)
VH: QVQLQQWGAGLLKPSETLSLTCAVYGGSFSGYYWSWIRQPPGKGLEWIGEINHSGSTNYNPSLKSRVTISVETSKNQFSLKLSSVTAADTAVYYCARDKWTWYFDLWGRGTLVTVSS
VL: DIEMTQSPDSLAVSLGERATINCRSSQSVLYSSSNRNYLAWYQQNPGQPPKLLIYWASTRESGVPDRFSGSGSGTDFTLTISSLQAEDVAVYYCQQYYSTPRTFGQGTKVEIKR
notes: also called AB062VH; AB062VL
Kd [1]: 1360 pM
koff [1]: 0.000117 s⁻¹
kon [1]: 86600 M⁻¹ s⁻¹

Further lines, results first:

Kd (Placental GF): < 254 pM
koff (Placental GF): 0.00254 s⁻¹
kon (Placental GF): > 1e+07 M⁻¹ s⁻¹
B7: DVD258 (bispecific antibody, human IgG1, kappa)
heavy: not shown
light: DIVLTQSPDSLAVSLGERVTMNCKSSQSLLNSGMRKSFLAWYQQKPGQSPKLLIYWASTRESGVPDRFTGSGSGTDFTLTISSVQAEDVAVYYCKQSYHLFTFGSGTKLEIKRTVAAPDIQMTQSPSSLSASVGDRVTITCRASQDVSTAVAWYQQKPGKAPKLLIYSASFLYSGVPSRFSGSGSGTDFTLTISSLQPEDFATTYYCQQSYTGTVTFGQGTKVEIKRTVAAPSVFIFPPSDEQLKSGTASVVCLLNNFYPREAKVQWKVDNALQSGNSQESVTEQDSKDSTYSLSSTLTLSKADYEKHKVYACEVTHQGLSSPVTKSFNRGEC
notes: N-terminal VD PlGF, C-terminal VD DLL4; also called VD258H; VD258L

% inhibition of HUVEC proliferation at 0.67 nM [3]: -5%
% inhibition of HUVEC proliferation at 6.7 nM [3]: 31%
% inhibition of HUVEC proliferation at 67 nM [3]: 65%
B9: DVD047 (bispecific antibody, human IgG1, kappa)
heavy: not shown
light: DIQMTQSPSSLSASVGDRVTITCSASQDISNYLNWYQQKPGKAPKVLIYFTSSLHSGVPSRFSGSGSGTDFTLTISSLQPEDFATYYCQQYSTVPWTFGQGTKVEIKRTVAAPDVVMTQSPLSLPVTPGEPASISCRSSQSLLHSNGFNYVDWYLQKPGQSPHLLIYFGSYRASGVPDRFSGSGSGTDFTLKISRVEAEDVGVYYCMQALQTPPWTFGQGTKVEIRRTVAAPSVFIFPPSDEQLKSGTASVVCLLNNFYPREAKVQWKVDNALQSGNSQESVTEQDSKDSTYSLSSTLTLSKADYEKHKVYACEVTHQGLSSPVTKSFNRGEC

Soluble Flt1 Assay, % of Neutralization @ 9.2 nM Ab [2]: 1.1%
Soluble Flt1 Assay, % of Neutralization @ 27.7 nM Ab [2]: 50.3%
Soluble Flt1 Assay, % of Neutralization @ 83.3 nM Ab [2]: 57.9%
% inhibition of HUVEC proliferation at 0.67 nM [3]: -22%
% inhibition of HUVEC proliferation at 6.7 nM [3]: 51%
% inhibition of HUVEC proliferation at 67 nM [3]: 89%
B11: DVD043 (bispecific antibody, human IgG1, kappa)
heavy: not shown
light: DIQMTQSPSSLSASVGDRVTITCSASQDISNYLNWYQQKPGKAPKVLIYFTSSLHSGVPSRFSGSGSGTDFTLTISSLQPEDFATYYCQQYSTVPWTFGQGTKVEIKRTVAAPDIQMTQSPSSLSASVGDRVTITCRASQDVSTAVAWYQQKPGKAPKLLIYSASFLYSGVPSRFSGSGSGTDFTLTISSLQPEDFATTYYCQQSYTGTVTFGQGTKVEIKRTVAAPSVFIFPPSDEQLKSGTASVVCLLNNFYPREAKVQWKVDNALQSGNSQESVTEQDSKDSTYSLSSTLTLSKADYEKHKVYACEVTHQGLSSPVTKSFNRGEC

Kd (DLL ECD His tag): 2320 pM
koff (DLL ECD His tag): 0.000217 s⁻¹
kon (DLL ECD His tag): 93700 M⁻¹ s⁻¹
B12: DVD043 (bispecific antibody, human IgG1, kappa)
heavy: not shown
light: DIQMTQSPSSLSASVGDRVTITCSASQDISNYLNWYQQKPGKAPKVLIYFTSSLHSGVPSRFSGSGSGTDFTLTISSLQPEDFATYYCQQYSTVPWTFGQGTKVEIKRTVAAPDIQMTQSPSSLSASVGDRVTITCRASQDVSTAVAWYQQKPGKAPKLLIYSASFLYSGVPSRFSGSGSGTDFTLTISSLQPEDFATTYYCQQSYTGTVTFGQGTKVEIKRTVAAPSVFIFPPSDEQLKSGTASVVCLLNNFYPREAKVQWKVDNALQSGNSQESVTEQDSKDSTYSLSSTLTLSKADYEKHKVYACEVTHQGLSSPVTKSFNRGEC
notes: N-terminal VD VEGF, C-terminal VD DLL4; also called DVD043H; DVD043L
